Data as given in US20240117074A1 (published 2024).

Key:
[1] = target: T1, biotinylated human CD40-mouse Fc (Ancell #504-030) (human, UniProt P25942 21-193, biotinylated); experiment: dual target ELISA: CEACAM5 coated, biotinylated hCD40-muIg detection
T1 construct: Bought fusion protein; also called hCD40-muIg; CD40mFc-biotin; not shown: mouse Ig Fc of the bought fusion protein
Procedure: ELISA plates were coated with human EpCAM, bsAb was added followed by detection using goat anti human-kappa light chain-HRP.
(§1) 96-well plates were coated with 0.5 μg/mL antigen, hCEACAM-1 (2244-CM-050, R&D Systems), hCEACAM-5 (4128-CM-050, R&D Systems), hCEACAM-6 (3934-CM-050, R&D Systems) or CEACAM-8 (9639-CM-050, R&D Systems) in PBS over night at 4° C. After washing in PBS/0.05% Tween 20 (PBST), the plates were blocked with PBST, 2% BSA for at least 30 minutes at room temperature before a second round of washing. RUBY bsAbs, diluted in PBST, 0.5% BSA, were then added and allowed to bind for at least 1 hour at room temperature. […] Finally, a final round of washing was performed and bound complexes detected using SuperSignal Pico Luminescent as substrate and luminescence signals were measured using Fluostar Optima.

[2] = target: T2, human CEACAM6, recombinant soluble (hCEACAM-6, R&D Systems #3934-CM-050) (human, UniProt P40199 35-320); experiment: ELISA, coated CEACAM family protein
T2 sequence (looked up): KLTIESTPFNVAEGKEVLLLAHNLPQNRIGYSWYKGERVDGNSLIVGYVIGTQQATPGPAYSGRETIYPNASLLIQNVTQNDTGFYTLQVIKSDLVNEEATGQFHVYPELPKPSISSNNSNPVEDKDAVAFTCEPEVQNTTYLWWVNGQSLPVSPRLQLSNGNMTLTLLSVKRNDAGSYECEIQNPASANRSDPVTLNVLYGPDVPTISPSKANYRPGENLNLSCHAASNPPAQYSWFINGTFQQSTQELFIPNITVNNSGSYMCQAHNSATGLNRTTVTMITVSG
Procedure: as §1

[3] = target: T3, human CEACAM1, recombinant soluble (hCEACAM-1, R&D Systems #2244-CM-050) (human, UniProt P13688 35-428); experiment: ELISA, coated CEACAM family protein
T3 sequence (looked up): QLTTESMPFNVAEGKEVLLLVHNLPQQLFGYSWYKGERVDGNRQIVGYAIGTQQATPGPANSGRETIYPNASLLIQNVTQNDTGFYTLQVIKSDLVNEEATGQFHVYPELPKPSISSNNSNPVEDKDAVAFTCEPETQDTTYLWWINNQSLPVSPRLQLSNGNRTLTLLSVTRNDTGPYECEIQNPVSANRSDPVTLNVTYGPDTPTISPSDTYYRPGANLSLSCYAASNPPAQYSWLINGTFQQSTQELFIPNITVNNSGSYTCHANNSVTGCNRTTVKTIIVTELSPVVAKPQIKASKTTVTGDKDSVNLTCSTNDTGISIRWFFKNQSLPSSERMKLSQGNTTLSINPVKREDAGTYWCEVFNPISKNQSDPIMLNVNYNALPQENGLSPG
Procedure: as §1

[4] = target: T4, CEACAM8, recombinant soluble (CEACAM-8, R&D Systems #9639-CM-050) (UniProt P31997 35-320, limits assumed); experiment: ELISA, coated CEACAM family protein
T4 sequence (looked up): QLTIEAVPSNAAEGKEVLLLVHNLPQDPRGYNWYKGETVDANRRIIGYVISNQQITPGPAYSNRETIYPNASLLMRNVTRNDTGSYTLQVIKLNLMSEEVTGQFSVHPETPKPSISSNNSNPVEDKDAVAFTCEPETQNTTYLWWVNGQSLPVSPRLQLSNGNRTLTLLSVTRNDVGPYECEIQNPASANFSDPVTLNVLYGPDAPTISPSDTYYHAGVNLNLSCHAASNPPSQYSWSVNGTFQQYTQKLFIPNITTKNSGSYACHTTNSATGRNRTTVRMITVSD
Procedure: as §1

T1 sequence (P25942 21-193): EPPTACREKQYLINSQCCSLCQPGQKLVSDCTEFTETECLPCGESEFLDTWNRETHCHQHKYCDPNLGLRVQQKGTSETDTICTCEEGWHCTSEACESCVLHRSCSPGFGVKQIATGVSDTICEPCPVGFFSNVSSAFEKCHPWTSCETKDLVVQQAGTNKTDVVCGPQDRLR

B1: Multi48 (bispecific antibody)
heavy 1: not shown
light: DIQMTQSPSSLSASVGDRVTITCRASQSISSYLNWYQEKPGKAPKLLIYAASSLQSGVPSRFSGSGSGTDFTLTISSLQPEDFATYYCQQYGRNPPTFGQGTKLEIKRTVAAPSVFIFPPSDEQLKSGTASVVCYLNNFYPREAKVQWKVDNALQSGNSQESVTEQDSKDSTYSLWSTLTLSKADYEKHKVYACEVTHQGLSSPVTKSFNRGEC
heavy 2: EVQLLESGGGLVQPGGSLRLSCAASGFTFGDHAMSWVREAPGKGLEWVSAISGYGHSTGYADSVKGRFTISRDNSKNTLYLQMNSLRAEDTAVYYCARNHYRVGLDYWGQGTLVTVSSASTKGPSVFPLAPSSKSTSGGTAALGCLVKDYFPEPVTVSWNSGALTSGVHTFPAVLQSSGLYSLTSVVEVPSSSLGTQTYICNVNHKPSNTKVDKKVEPKSC
notes: copies: 2 + 2 + 2
- binding result [1]: binds
- binding result [2]: no binding
- binding result [3]: no binding
- binding result [4]: no binding
